Results on nine molecules are retold here after patent US20250042994A1 (HAINAN SIMCERE ZAIMING PHARMACEUTICAL, published 2025).

T1: Human CD19-his protein (human, UniProt P15391 20-291)
T1 construct: bought protein; also called human CD19 protein; recombinant human CD19-His; not shown: His tag
T1 sequence (looked up): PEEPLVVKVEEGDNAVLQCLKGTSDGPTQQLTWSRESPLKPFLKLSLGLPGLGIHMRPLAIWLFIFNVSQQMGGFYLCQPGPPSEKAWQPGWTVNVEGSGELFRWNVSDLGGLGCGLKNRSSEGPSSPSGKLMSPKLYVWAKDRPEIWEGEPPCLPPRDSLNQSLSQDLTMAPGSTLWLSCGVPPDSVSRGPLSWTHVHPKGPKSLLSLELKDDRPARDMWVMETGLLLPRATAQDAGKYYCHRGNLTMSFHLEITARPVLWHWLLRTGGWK

T2: murine CD19 protein (murine, UniProt P25918 17-287, limits assumed)
T2 construct: bought protein; also called commercial murine CD19
T2 sequence (looked up): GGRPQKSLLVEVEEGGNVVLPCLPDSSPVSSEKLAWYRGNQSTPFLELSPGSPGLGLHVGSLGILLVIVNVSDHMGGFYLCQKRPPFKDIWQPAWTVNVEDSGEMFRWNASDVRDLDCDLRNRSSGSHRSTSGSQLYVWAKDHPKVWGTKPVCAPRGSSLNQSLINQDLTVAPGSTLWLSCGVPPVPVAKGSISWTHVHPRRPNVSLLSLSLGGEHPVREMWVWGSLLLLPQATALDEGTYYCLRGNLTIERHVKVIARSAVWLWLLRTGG

T3: human CD19 exon1-3-his protein (human, UniProt P15391 20-186, limits assumed)
T3 construct: made in HEK293E cells; also called membrane-distal end; not shown: His tag
T3 sequence (looked up): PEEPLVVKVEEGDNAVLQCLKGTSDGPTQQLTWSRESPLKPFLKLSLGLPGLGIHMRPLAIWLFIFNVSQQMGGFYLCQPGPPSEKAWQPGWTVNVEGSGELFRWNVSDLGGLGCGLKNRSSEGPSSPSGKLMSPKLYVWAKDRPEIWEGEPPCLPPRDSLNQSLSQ

B1: F6.5.20 (antibody, human IgG1, V domains shown)
VH: QVQLQQPGAELVKPGASVKLSCKASGYTFTSYWMQWVKQRPGQGLEWIGEIDPSDSYTNYNQKFKGKASLTVDTSSSTAYMQLSSLTSEDSAVYYCARWGLLRNYYVMDYWGQGTSVTVSS
VL: EIVLTQSPTTMAASPGEKITITCSASSSISSNYLHWYQQKPGFSPKLLIYRTSNLASGVPARFSGSGSGTSYSLTIGTMEAEDVATYYCQQGSSIPRMLTFGAGTKLELK
notes: human-murine chimeric antibody, human IgG1
B2: F3.13.2 (antibody, human IgG1, V domains shown)
VH: DVQLQESGPGLMKPSQSLSLTCSVTGYSITSGYYWNWIRQFPGNKLEWMGYISYDGSNNYNPSLKNRFSITRDTSKNQFFLKLNSVTTEDTATYYCARRKLTGGPYFDYWGQGTTLTVSS
VL: DIVLTQSPASLAVTLGQRATISCRASESVSFHGFHIMHWYQQKPGQPPKLLIYAASHLVSGVPDRFSGSGSETDFTLNIHPVEEEDAAAYFCQQSVEDPWTFGGGTKLEIK
notes: as for B1
B3: F3.114.12 (antibody, human IgG1, V domains shown)
VH: DVQLQESGPGLVKPSQSLSLTCSVTGYSITSGYDWNWIRQFPGNKLEWMGYISYDGKNNYNPSLRNRISITRDTSKNQFFLKLNSVTTEDTATYYCARRDLRGYFDVWGTGTTVTVSS
VL: DIVLTQSPATLSVTPGDRVSLSCRASQSISNYLHWYQQKSHESPRLLIKYASLSISGIPSRFSGSGSGTDFTLSINSVETEDFGVYFCQQSNSWPLTFGAGTKLELK
notes: as for B1
B4: F3.3.10 (antibody, human IgG1, V domains shown)
VH: DVQLQESGPGLAKLSQSLSLTCSVTGYSITSGYYWNWIRQFPGNKLEWMGHISYDGNNNYNPSLKNRISITRDTSKNQFFLKLNSVTTEDTATYYCARENYSNYYFDYWGQGTTLTVSS
VL: DIVLTQSPASLAVSLGQRATISCRASQSVSKSSYTYIHWYQQKPGQPPKLLIKYASILQSGVPARFSGSGSGTDFTLNFHPVEEEDTATYYCQHSWEIPYTFGGGTKLEIK
notes: as for B1
B5: F3.83.9 (antibody, human IgG1, V domains shown)
VH: B4 VH with A12V, L14P, H51Y, N57G, Y95F, N100D, Y104W, Y108V, Q111T, L115V
VL: B4 VL with T35S, I37M, P47S, Q59K, F79I, Y100W
notes: as for B1
B6: F3.81.2 (antibody, human IgG1, V domains shown)
VH: QVQLQQPGAELVMPGASVKLSCKASAYTFTNYWMHWVKQRPGHGLEWIGEIDPSDSYTDYNQNFKAKATLTVDKSSSTAYMQLSSLTSEDSAVYYCARLMGRYFDVWGTGTTVTVSS
VL: DIVMTQSHKFMSTSVGDRVSITCKASQDVSAAVAWYQQKPGQSPKLLINSASYRYTGVPDRFTGSGSGTDFTFTISSVQAEDLAVYYCQQHYSTPLTFGAGTKLELR
notes: as for B1
B7: F3.5.1 (antibody, human IgG1, V domains shown)
VH: QAQLQQSGPELVKPGASVKISCKASGYAFSGSWMNWVQQRPGKGLEWIGRIYPGDGDTYYNGKFKDKAILTADKSSSTAYMQLSSLTSEDSAVYFCAQLRYRYVMDYWGQGTSVTVSS
VL: DIVLTQSPASLAVSLGQRATISCRASESVSIHGSHLMHWYQQKPGQPPRLLIYAASNLESGVPARFSGSGSETDFTLNIHPVEEEDAATYFCQQGIKDPYTFGGGTKLEIK
notes: as for B1
B8: F3.40.14 (antibody, human IgG1, V domains shown)
VH: B7 VH with N61S, K74T, Y101S, T112A
VL: B7 VL with S34T, K97D
notes: as for B1
B9: F6.12.12 (antibody, human IgG1, V domains shown)
VH: DVQLQESGPGLVKPSQSLSLTCSVTGYSITSGYYWIWIRQFPGNKLEWMGYISYDASNKYKPSLKNRISITRDTSKNQFFLKLNSVTAEDTATYFCAREDLRGYFDVWGTGTSVTVSS
VL: DIVLTQSPASLAVSLGRRATISCRASQSVSTSGFSYMHWYQQKPGQPPNLLIKYASILQSGVPARFSGSGSGTDFILNIHPVEDVDTATYYCQHSWGIPFTFGSGTKLEIK
notes: as for B1

Positions count from the first letter of the chain named.

The target in one assay is T1, Human CD19-his protein. The experiment in a line: ELISA, antibody at 0.001 nM. The protocol: (§1) Human CD19-his protein (purchased from ACROBiosystems, catalog number: CD9-H52H2) was diluted with PBS to a final concentration of 4 μg/mL, and then added to a 96-well ELISA plate at 100 μl/well. The plate was sealed with a plastic film and incubated overnight at 4° C., the plate was washed 2 times with PBS the next day, and then a blocking solution [PBS+2% (w/w) BSA] was added for blocking at room temperature for 2 h. The blocking solution was poured off, and 100 nM gradiently diluted CD19 chimeric antibody or control antibody was added at 50 μl/well. After incubation at 37° C. for 2 h, the plate was washed 3 times with PBS. […] TMB substrate was added at 50 μl/well, and incubated at room temperature for 10 min, and then a stop solution (1.0 N HCl) was added at 50 μl/well. The OD450 nm values were read by an ELISA microplate reader (Multimode Plate Reader, EnSight, purchased from Perkin Elmer).
(In general: An ELISA detects its analyte on a solid surface through an enzyme-linked reagent.)
In the case of B1, the OD450 turned out to be 0.06.
Same read-out and setting: as for B2, the figure is 0.05; as for B3, 0.05; as for B4, 0.05.
Take B5: the OD450 came to 0.05.
Same read-out and setting: as for B6, the figure is 0.05; as for B7, 0.06; as for B8, 0.05.
In turn, B9 gave an OD450 of 0.06.

The next assay deals with T1, Human CD19-his protein. The assay is described as follows: ELISA, antibody at 0.0001 nM. The method, then: as §1
In the case of B1, the OD450 amounted to 0.05.
Still for that read-out and setting: the same measure for B2: 0.05.
With B3, the OD450 came out at 0.05.
Still for that read-out and setting: as for B4, the figure is 0.05; as for B5, 0.05.
Same read-out and setting: the same measure for B6: 0.05.
On the same count and under the same terms, as for B7, the figure is 0.05; as for B8, 0.05.
B9 had an OD450 of 0.05.

For a further assay, the target named is T1, Human CD19-his protein. The assay is described as follows: ELISA, antibody at 0.10 nM. The protocol: as §1
For B1, the OD450 stood at 0.34.
The molecule B2 displayed an OD450 of 0.06.
The same measure, in the same setting: the same measure for B3: 0.08; for B4: 0.08; for B5: 0.11.
Still for that read-out and setting: as for B6, the figure is 0.24; as for B7, 0.5.
The same measure, in the same setting: as for B8, the figure is 0.11; as for B9, 0.39.

Another assay deals with T1, Human CD19-his protein. The assay is described as follows: ELISA, antibody at 0.01 nM. The protocol:
as §1
With B1, the OD450 is 0.1.
On the same count and under the same terms, the same measure for B2: 0.05.
On the same count and under the same terms, as for B3, the figure is 0.05.
The same measure, in the same setting: the same measure for B4: 0.05; for B5: 0.06; for B6: 0.07.
Consider B7, for which the OD450 was determined as 0.11.
The same measure, in the same setting: the same measure for B8: 0.06; for B9: 0.1.

In another assay the target is T2, murine CD19 protein. The experiment in a line: ELISA, coated murine CD19. The method, then: as §1
In order to detect the species cross-binding activity of the chimeric antibodies, an ELISA plate was coated with commercial murine CD19 (ACROBiosystems, catalog number: 50510-M08H) and monkey CD19 (ACROBiosystems, catalog number: 90051-C08H), respectively, and the ELISA detection was performed according to the method in example 5.1.
For the molecule B1, the binding result is listed as “no binding”.
Take B2: the binding result is listed as “no binding”.
On the same count and under the same terms, the same measure for B3: “no binding”.
The same measure, in the same setting: the same measure for B4: “no binding”; for B5: “no binding”; for B6: “no binding”.
On the same count and under the same terms, the same measure for B7: “no binding”.
Turning to B8, the binding result is “no binding”.
As to B9, the binding result was “no binding”.

Another assay has as its target T1, Human CD19-his protein. The experiment in a line: ELISA, antibody at 100 nM. The protocol:
as §1
B1 showed an OD450 of 0.63.
Same read-out and setting: the same measure for B2: 0.45; for B3: 0.61; for B4: 0.59.
Still for that read-out and setting: the same measure for B5: 0.94; for B6: 1.4; for B7: 2.01.
The same measure, in the same setting: as for B8, the figure is 1.19; as for B9, 1.32.

A further assay has as its target T1, Human CD19-his protein. The experiment in a line: ELISA, antibody at 1.00 nM. The method, then:
as §1
Consider B1, for which the OD450 came out at 0.45.
Same read-out and setting: the same measure for B2: 0.18; for B3: 0.24; for B4: 0.21.
On the same count and under the same terms, the same measure for B5: 0.36.
Same read-out and setting: as for B6, the figure is 0.74.
For the molecule B7, the OD450 was determined as 1.38.
The same measure, in the same setting: as for B8, the figure is 0.42; as for B9, 0.71.

A further assay addresses T3, human CD19 exon1-3-his protein. The assay is described as follows: ELISA, coated at 2 ug/mL. The method, then:
as §1
CD19 protein contains 4 exons in the extracellular region, in which exons 1-3 are located at the membrane-distal end and exon 4 is located at the membrane-proximal end. […] To identify the distribution of antigen binding epitopes of the chimeric antibodies, human CD19 exon 1-3-His (membrane-distal end) was used to coat at 2 μg/mL according to the ELISA method in example 5.1.
In the case of B1, the binding result is reported as “no binding”.
On the same count and under the same terms, as for B2, the entry is “no binding”; as for B3, “no binding”.
Still for that read-out and setting: the same measure for B4: “no binding”; for B5: “no binding”; for B6: “no binding”.
On the same count and under the same terms, the same measure for B7: “no binding”.
Take B8: the binding result is listed as “no binding”.
Same read-out and setting: the same measure for B9: “no binding”.

The next assay addresses T1, Human CD19-his protein. The assay is described as follows: ELISA, antibody at 10 nM. The method, then:
as §1
Molecule B1 displayed an OD450 of 0.43.
Still for that read-out and setting: the same measure for B2: 0.29.
Same read-out and setting: as for B3, the figure is 0.46; as for B4, 0.42.
Same read-out and setting: as for B5, the figure is 0.6; as for B6, 1.05.
For B7, the OD450 was 1.75.
In turn, B8 yielded an OD450 of 1.01.
Still for that read-out and setting: as for B9, the figure is 1.08.
